Measured values taken from the DeepSol protein solubility set.

Assay: soluble on expression in E. coli; label from the status in PepcDB or PDB records

Sequence | soluble on expression in E. coli
MAHHHHHHMTHTGAAAASGASASTLSSQSTAAVASDDAFSEQHQGQKQRNLLRCFALADLLGVSPTVVQQLANAAATPSSSLHHARNTSRASSHCSTESDPVIRAYQLEQILVAAVVKQLFDRCCDPDQSIQNGGSVDAGQPAASSVSTTARQPARKHQPSSLKAPPWSAALSEPRRACTSPQQPDGERLLPSVLSSPQGVARVDALHASFLPLLLVALLQRVSEGSGGDTQATDATVPRQTPDTNAAASNTSAAVFSLRQQRSFRTALHQLLPLYTPLLLQRRRAARAVVSSVVVALQEYPCSGHDDGESTTEEEESRKRIQRLVHQGLCCSEVKQWLHAARLLSDTLVACLSHVSPRASIAATAPPPAIRRRRGGRGRFDGGAVDTGDGRGVAECGRDAPPRWRVGGGGAASVRSLVVGIRYERFEWCRAARARRQHPCKCWGPNEPTRAVHHHHHCRGARACRGHVYRRRGDVRRHLAPRGWPFWRTAAAATVELCSCWWSHSADTTRCTDTLSR | not soluble
MAHHHHHHMTKTNGQNAARKLVRLRCRNRWADKGWKRAHTFSARKANPFGGSSHAKGIVLEKIGVGAKQPNSAIRKCVRVQLIKNDKKIIAFVPNDGCLHFIEENDEVLVSGFGRSGHAVGDIPGVRFKIVKVSNVGLYALYRQKKEKPRN | not soluble
MAHHHHHHMTPAGAGEIFLRHNPYRSEVISWYRKFLKASFSVPWETDEDALYVLEEARRLFRKNARINDIETIERKLREAEMRYEIGVHYRIPYPRAFHKTQGSLQESGVAYAADLDSMYDHPVSPRIGWIMEGSVNGGTMGGSEHLTQYLEDGPGVENDNLSEGR | not soluble
MAHHHHHHMVEAQRGYNCVWHSWPPPLQGVNKHFNSCAASPLPLQLLVGNRILLITKDPPLKVIKFFNEFQPEEYIKPGNICTQNVTLKFGDVLNVPVSMQKDLQKRKVTFDIVDQKIVIRKDKVLAEKDKLVSAENAKLLRMLNMKIANFDITVLGYWNVNKFVSLM | soluble
MAHHHHHHMVGAMHDIQVGFLDRCSVFQFTLTCTVLDFQKVAEPQPKSPGSLPSSTRTAPNPNGEEVEKHINKEQYTVRCLGSEAYTEALKNYLDDGCIVRVIGRLKTTEVVDAGKKQPFPCIIVEQGRWSTVSLVHSLRKQRRDWQLQNILTSVATLE | not soluble
MAHHHHHHMVMYDPAAPNNYRDVKVMWWKRAREDERKNDISRSLAAAAEAGSSPFDMPDMMRMAPRDELAYDILGGSGDTMSLHLSAEELHQRRVRQSAALGITTAMNLEREELEAAHKARVAAGMDRRGRIGQKLGKLMSVAATRENATKTNTTSDHVGDGINTSAGEMTPATTMATSTTTSLPGITAPLVFQRSELAAGGYVVREDVGALEKRKTHYGKPSSTILIRFVRDGPPVEVFDDTSNKNVGSGTLRNAFLENIQDLCGQCGVVRSLRYMVLDDGKRAALRARLENEREEVSAASADVETRLAREMIRVLVRFDTVANAFKALEMLQQRHGSNWDVCFFSTQLFDVGALGPAEGESLCCA | not soluble
MAHHHHHHMVNRSTRLQRGPLKKKTTAVAARTSSHAEQPCADGPAKTSSPQTNSIKNVEMTVGVHASPAVAVGDTPQGKLRLRRRAKKDRPLVAAKTDMKSTVRNRKRGRARGSQPGRGSTATTIVHDEQRVTRRPAGGNRQRNQHRQLAEKLVAREEHQSRKKAAEKRMETAKAELALFDQVMQIPSFEENPFAAIEGHLNGTMAFLQPQTPDVGRRKLEE | not soluble
MAHHHHHHMVRPEYSSPPEFFYNEEEAKKYVRNSRIRDIQSQMTERAMELLLLPDSPCLLLDIGCGSGISGMTLNELDHFWIGIDISIHMLRLQNEAHLGGDMLLADMGKLMRFQPCIFDGVVSISALQWLCNWDKKDESPVSRISTFFKWLYNCLKRGARAVFQFYPDSPEQIKTLTNFAMKAGFGGGVVVDFPNSAKSKKYYLCLWAGSSLVATMPTALNDEEENIISHERRKFNKKTKKQIKKNKEWILKKKDQRRMKGLDVKRDSKYTGRKRKGRF | not soluble
MAHHHHHHMVSKTRKQRQKKKAGMQAHDGVLPPVVPSVPKSVHLKKTRPNMKGKMKIRLGLESPIDIYNGFEERKGVIWRCPTCAKACRVVGFCVDCASGVKSKSHAGQLSGRASTKKEAAQTRAPKLRIKEKSRVVKLRRKK | soluble
MAHHHHHHMWKAIFGKKVDSIKAIDSIYHLSDNDFRWLQGFPQLKGSDRVQTLASSEGEGSKDDYMEEPVGPVSHRDVLLYTVGIIKGATHPLLRESSLAVTGTHTKEGETFFTLDFR | not soluble
MAHHHHHHMWNGPTYAIARVRWDSVVRTFSACGTSLASPQRRFSSWFEEQPGGGQHNVEDKAVAAFAVNADRLEKGKTIIKKKAHGIPFHISDAEAVDNVCRHHGAAVEIHSVERFLMPFWLTETSAAGTFKADLLQHDRMNITQPHYFLWLEGPRYQFNYPFGEYMPMNQVSASYREPLKVVERCLTGTHVPSMLLSRFELLHEVEKMEHRPTVIPFTMSTVTALSVIERRVNRRVVLDRIDRELRKFHGSFLKSNVSVMSLQMVASSIRPAFLPLFKLTVSTISHSTPVPAFICGATGKVVGPVLHVQRRKRLGLAAAAAVGTLLSLAPLVEPGVATAAALAVVASSGFVQQAVQRARFVREQAHQMAQLKSVGVLNLVADSTGYRWTPEEEEKEEYEYREELRRQARARDAFEQRVKEEAARDRVRAHGTHFDPKNRRRTDLADVDPRGYYELLGLKGKEFSATAKDITKAFREAVRIHHPDVHPEGEAENKKRHMQRIIEAYKILHNPKTKKFYDSGEMSGKSQETS | not soluble
MAHHHHHHMWRCGMMPRTRVLRFVWKQSYRDLLPPAAASAYVCGQLRWCDSCDGGGVPAVLESPSDAAGVYSFFSQSTASAVRALRDVTRSAHSLSITDRRLALDGLAVLLRENADLLASADALVTGMCLRDARRSLDAALNFILFCEQRLRTPTAAATTAVIMKDAASVDAEEVLHSFGCGGANICGDSHSVSTLTGKSSVALCVTAANYPLQWGMETVATALLRGSAAVWLPSLDTPLSALWLMHLLHRSNKNVVADSRGAVNIILCRADDVVAAFSRQQESGLSIVGLKNGFRDHQLSRNHQAHGIPSAISHGSISCITRWYHRVMKPSLAVVGSGHHHTETMAVRLDASRVAALICQHAFHGNGRMLYALHIAFVPKQDVLPVLQSVVQYVRNLRLGHSLDPSVNMGPLPGAAHMAAMKETVEAAVCCGDFKLQHVCGGFDVAMPAGFFCLPCAFYATVANVTPAGTEMSIRVLCETTARLRFGLDRLGGGPFVVVCGYDPPQQREALEVVLREKEQYVLHYW | not soluble
MAHHHHHHMWSGLKLERLLYTFPETTTPTGWSQSDPLLSSPLGEADANEGDSSAVFGEDVNVEHRHFNNGERRRKLALRPFTVPASAMAEEGGEEGSHVHLGFSFPGEGKFDEEPEAVLWCPQGNCQWLNEESDCSQRSAMSCPARPTKTTIQLGDPGAPIKKNRERKYICNDADENSNSRVGPALYHQLEFFQESNSVSFPCESSALSHITPLDETGESVDLANHMSHLTVAVSPIQKRLLFTGVLDDAVDAPSGRDVGDDKGVGSGLQSLRREKRFLEEMDTNRDAANSNSMACTMPREPHRKFRRIDAGENDRKSLDNHFHSRR | not soluble
MAHHHHHHMYRAHSKDINRNKGFHPLTYRNLRRVEQLKEEAELNKQKAEERQKELQRDQEERRYDELVLANSADSLSGELARYRQTRSIFAAEYEADAKAAKDASVASLPSPQVSKPEVQLKTSAGASFPVNSFLSKFKKEESYGSTCVMVKAEARDNTAAAASSAVASAEAETPVRKRPRDDATSNSPSSTHNGSGYGEGATKRGGDGGESAPATGFVTSAEAAQLRKELNLAQKQRHDPLMRVKEYQNSCVAAAARQLDHEQATGAVAKREDDQDKLQSRIRELLALKKKKK | not soluble
MAHHHHHHMYTWFHTSSHVFFVMEYCSNGDLFTYLNEHGPFAEKKVAEMLFEIIWAIRTCHDKRIAHLDLKPENVLVNHEEKCKLADFGLSAHIGSKHKKKGISHYRGTHDYWSPEQCARHQKKKQNFGEFDQKTDIWTLGILAFELKFGRPPFGSTNEERETVIMNRIQDYHWSQLFCEKMKQDLIDKLSPEFKDFLNLCLDKNPKKRPTAETLIQHPFIFLHNKSRPCIKSYATQPRGKQGPKLSHKGFNEQDGSFLTPIWFHNKG | not soluble
